The values below come from article PMC3605642 (The Journal of Biological Chemistry, 2013).

Numbering of substitutions follows the chain as printed. Numbers in names are those of the source. Read-outs that look alike come from different tables or passages of the source.

The chains are these.
T1: vinculin domain 1 (Vd1; residues 1–258) (chicken, UniProt P12003 1-258)
T1 sequence (looked up): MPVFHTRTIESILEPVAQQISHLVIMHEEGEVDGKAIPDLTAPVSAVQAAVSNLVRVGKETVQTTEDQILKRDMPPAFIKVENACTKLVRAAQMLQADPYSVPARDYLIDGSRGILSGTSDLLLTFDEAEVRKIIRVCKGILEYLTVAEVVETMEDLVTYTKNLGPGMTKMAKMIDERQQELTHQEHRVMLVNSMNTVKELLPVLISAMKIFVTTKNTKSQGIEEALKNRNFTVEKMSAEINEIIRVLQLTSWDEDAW

B1: talin R3 rod domain (residues 787–911) (domain or fragment, mouse, UniProt P26039 787-911, looked up)
chain: AHATGAGPAGRYDQATDTILTVTENIFSSMGDAGEMVRQARILAQATSDLVNAIKADAEGESDLENSRKLLSAAKILADATAKMVEAAKGAAAHPDSEEQQQRLREAAEGLRMATNAAAQNAIKK
B2: talin R3 IVVI mutant (T809I/T833V/T867V/T901I) (domain or fragment, mouse, UniProt P26039 787-911, looked up)
chain: B1 chain with T23I, T47V, T81V, T115I
B3: RIAM(1–127) (TBS1-TBS2) (domain or fragment)
chain: MGESNEDIDQMFSTLLGEMDLLTQSLGVDTLPPPDPNPPREEFNYTVGFKDLNESLNALEDQDLDALMADLVADISEAEQRTIQAQKESSQNQDRFALLRASDGQGTASGGYGASAAAIDVSHHEEA
B4: talin VBS (residues 820–844) in talin R3 (peptide, UniProt P26039 820-844, looked up)
peptide: GEMVRQARILAQATSDLVNAIKADA
B5: RIAM(1–32) (TBS1) (peptide, UniProt Q8R5A3 1-32, looked up)
peptide: MGESNEDIDQMFSTLLGEMDLLTQSLGVDTLP
B6: RIAM wild type peptide (6-30), TBS1 (peptide)
peptide: EDIDQMFSTLLGEMDLLTQSLGVDT

In test [1] the target is vinculin domain 1 (Vd1; residues 1–258) (chicken) (UniProt P12003). The test is described as follows: SEC-MALS. On the technique in general: In gel filtration, larger molecules generally elute earlier.
The target in test [2] is T1, vinculin domain 1 (Vd1; residues 1–258). In words: SEC.
Test [3] has the same target. In words: SEC. The source holds these as a separate data set.
For test [4], the target named is talin R2R3 double domain fragment (mouse). In words: ITC. In general terms: ITC needs no label: the signal is the heat of the interaction.
talin R2R3 double domain fragment (mouse), sequence (P26039 whole entry, the tested form may be a part): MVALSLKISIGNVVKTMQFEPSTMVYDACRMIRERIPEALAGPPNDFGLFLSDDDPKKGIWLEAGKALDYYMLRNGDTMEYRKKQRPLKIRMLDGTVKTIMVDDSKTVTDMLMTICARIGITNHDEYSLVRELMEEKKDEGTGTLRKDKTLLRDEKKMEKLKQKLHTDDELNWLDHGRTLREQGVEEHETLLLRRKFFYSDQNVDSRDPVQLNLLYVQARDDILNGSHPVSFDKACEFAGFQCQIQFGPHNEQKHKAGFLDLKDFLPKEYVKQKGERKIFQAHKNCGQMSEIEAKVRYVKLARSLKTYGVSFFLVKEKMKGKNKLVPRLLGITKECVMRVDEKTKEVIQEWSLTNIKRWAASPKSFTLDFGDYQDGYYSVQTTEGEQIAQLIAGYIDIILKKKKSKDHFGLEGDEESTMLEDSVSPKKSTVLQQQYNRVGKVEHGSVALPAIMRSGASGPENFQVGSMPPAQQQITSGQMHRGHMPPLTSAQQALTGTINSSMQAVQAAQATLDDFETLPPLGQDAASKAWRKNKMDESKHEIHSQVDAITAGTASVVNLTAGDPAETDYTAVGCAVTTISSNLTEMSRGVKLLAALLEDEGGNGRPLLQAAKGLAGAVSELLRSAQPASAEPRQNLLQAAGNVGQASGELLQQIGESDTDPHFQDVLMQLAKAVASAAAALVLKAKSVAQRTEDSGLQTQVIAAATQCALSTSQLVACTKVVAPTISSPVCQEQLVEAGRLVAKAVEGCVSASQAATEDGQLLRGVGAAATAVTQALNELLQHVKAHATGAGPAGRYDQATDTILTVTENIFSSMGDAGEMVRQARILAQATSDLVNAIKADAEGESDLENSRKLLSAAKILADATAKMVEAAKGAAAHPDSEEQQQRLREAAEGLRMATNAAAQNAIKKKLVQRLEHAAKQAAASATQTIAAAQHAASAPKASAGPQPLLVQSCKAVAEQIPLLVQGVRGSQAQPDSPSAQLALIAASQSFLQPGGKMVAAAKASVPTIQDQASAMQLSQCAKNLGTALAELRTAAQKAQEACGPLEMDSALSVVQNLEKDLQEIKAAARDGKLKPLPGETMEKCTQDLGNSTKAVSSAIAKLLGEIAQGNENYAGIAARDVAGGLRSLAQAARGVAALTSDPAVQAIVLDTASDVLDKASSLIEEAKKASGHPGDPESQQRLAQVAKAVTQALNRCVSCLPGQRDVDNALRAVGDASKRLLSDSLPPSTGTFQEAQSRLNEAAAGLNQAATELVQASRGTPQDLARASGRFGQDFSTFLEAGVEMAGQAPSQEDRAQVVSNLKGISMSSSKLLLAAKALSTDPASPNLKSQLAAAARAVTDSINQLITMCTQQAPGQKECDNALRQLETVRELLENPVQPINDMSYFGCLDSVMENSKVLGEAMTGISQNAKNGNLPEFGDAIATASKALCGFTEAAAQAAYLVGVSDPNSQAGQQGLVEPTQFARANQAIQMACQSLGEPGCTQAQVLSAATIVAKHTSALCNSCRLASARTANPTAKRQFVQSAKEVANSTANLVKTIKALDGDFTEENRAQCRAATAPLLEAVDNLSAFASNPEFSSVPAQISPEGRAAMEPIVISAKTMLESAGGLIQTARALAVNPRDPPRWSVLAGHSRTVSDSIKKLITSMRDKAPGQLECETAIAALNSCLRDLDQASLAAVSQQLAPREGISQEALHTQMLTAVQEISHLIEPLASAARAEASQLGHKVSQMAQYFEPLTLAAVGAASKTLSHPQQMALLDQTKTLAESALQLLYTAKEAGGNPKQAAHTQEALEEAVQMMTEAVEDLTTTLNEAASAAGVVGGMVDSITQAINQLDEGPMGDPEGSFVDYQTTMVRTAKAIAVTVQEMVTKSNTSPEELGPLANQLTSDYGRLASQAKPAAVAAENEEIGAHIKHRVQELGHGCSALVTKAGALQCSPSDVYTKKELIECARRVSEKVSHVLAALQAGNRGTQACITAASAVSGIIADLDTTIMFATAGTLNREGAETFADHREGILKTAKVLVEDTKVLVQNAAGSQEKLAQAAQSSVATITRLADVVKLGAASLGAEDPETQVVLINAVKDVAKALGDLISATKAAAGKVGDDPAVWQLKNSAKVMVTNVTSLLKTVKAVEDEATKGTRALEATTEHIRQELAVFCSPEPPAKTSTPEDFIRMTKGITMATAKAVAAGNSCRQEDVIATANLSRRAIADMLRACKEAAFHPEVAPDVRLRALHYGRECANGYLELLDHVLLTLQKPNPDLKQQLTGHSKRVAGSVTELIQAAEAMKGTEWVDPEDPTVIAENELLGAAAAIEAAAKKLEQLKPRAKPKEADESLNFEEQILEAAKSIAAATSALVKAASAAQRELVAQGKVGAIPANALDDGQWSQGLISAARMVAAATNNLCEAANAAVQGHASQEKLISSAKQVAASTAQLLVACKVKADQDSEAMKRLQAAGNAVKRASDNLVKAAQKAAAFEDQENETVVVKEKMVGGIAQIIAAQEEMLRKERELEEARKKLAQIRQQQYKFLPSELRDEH
Test [5] has the same target. In words: SEC-MALS.
Test [6] addresses T1, vinculin domain 1 (Vd1; residues 1–258). In words: ITC.
The target in test [7] is B1. The test is described as follows: ITC.
The target in test [8] is B2. In words: NMR titration.
Test [9] has as its target B1. The test is described as follows: NMR titration.

Broadly, the stoichiometry N is a count of units in the complex or per binding partner. For “talin R2R3 double domain fragment (domain or fragment)”, the stoichiometry N in test [1] worked out at 4 Vd1 per R2R3. As to B1, in test [2], the binding result is recorded as “binds”.

For B2, in test [3], the binding result is on record as “binds”. By Kd is commonly meant a measure of binding affinity in units of concentration. Low readings indicate tighter binding, high ones weaker binding. In turn, B3 yielded a Kd in [4] of 2000 nM. The stoichiometry N in [5] was 1. In [6], B4 showed a Kd of 800 nM and a dH of -5.9 kcal. B5 gave a Kd in [7] of 36000 nM. The same molecule yielded a dH in [6] of -1.5 kcal. In the case of B6, the binding result in [8] and in test [9] was “binds” each time.
